Data from article PMC9185715.

Key:
nsp12 (RdRp);nsp7;nsp8 [1] = biological target: T1, nsp12 (RdRp);nsp7;nsp8 (SARS-CoV-2;SARS-CoV-2;SARS-CoV-2, UniProt P0DTD1;P0DTD1;P0DTD1 4393-5324;3860-3942;3943-4140, ||); assay: EMSA; 10 mM MgCl2; conditions: protein: recombinant;recombinant;recombinant; tags: ;N-terminal His6 removed by TEV;; copies: 1;1;2; hairpin, blunt, no 5' overhang
nsp12 (RdRp);nsp7;nsp8 [2] = biological target: T1, nsp12 (RdRp);nsp7;nsp8; assay: EMSA; 2.4 uM protein; conditions: protein: recombinant;recombinant;recombinant; tags: ;N-terminal His6 removed by TEV;; copies: 1;1;2
nsp12 (RdRp);nsp7;nsp8 [3] = biological target: T1, nsp12 (RdRp);nsp7;nsp8; assay: EMSA; 10 mM MgCl2; broadened shifted bands; conditions: protein: recombinant;recombinant;recombinant; tags: ;N-terminal His6 removed by TEV;; copies: 1;1;2

CGCGUAGUUUUCUACGCG (structured_RNA) [CoV-RNA1 truncated]
binding result (nsp12 (RdRp);nsp7;nsp8 [1]): no binding

TTTTCATGCTACGCGTAGTTTTCTACGCG (structured_DNA) [CoV-DNA1]
binding result (nsp12 (RdRp);nsp7;nsp8 [2]): no binding

UUUUCAUGCUACGCGUAGUUUUCUACGCG (structured_RNA) [CoV-RNA1]
binding result (nsp12 (RdRp);nsp7;nsp8 [3]): binds
